# Measured values from the supplement of paper PMC11316812.
# ± gives the standard deviation of the averaged measurements.
# Key:
# [1] = test system: MCF7; assay: percentage of EdU-negative (G0-arrested) nuclei per well, 72 h; higher = more G0 arrest; settings: reference: sequence is the full UniProt precursor, the tested protein was the secreted form or ectodomain
# [2] = test system: hTERT-HMEC; assay: as above; settings: reference: sequence is the full UniProt precursor, the tested protein was the secreted form or ectodomain
# [3] = protein concentration 0.0225 µM
# [4] = protein concentration 0.03125 µM
# [5] = protein concentration 0.3125 µM
# [6] = protein concentration 0.0308875 µM
# [7] = protein concentration 0.308875 µM
# [8] = protein concentration 0.0217075 µM
# [9] = protein concentration 0.217075 µM
# 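Note: secreted proteins added to cultured cells, EdU pulse at the end, nuclei found by Hoechst imaging, EdU status from nuclear versus surrounding ring intensity ratio, PBS as neutral control.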
sequence,measurement,setting,value
MSISLSSLILLPIWINMAQIQQGGPDEKEKTTALKDLLSRIDLDELMKKDEPPLDFPDTLEGFEYAFNEKGQLRHIKTGEPFVFNYREDLHRWNQKRYEALGEIITKYVYELLEKDCNLKKVSIPVDATESEPKSFIFMSEDALTNPQKLMVLIHGSGVVRAGQWARRLIINEDLDSGTQIPFIKRAVAEGYGVIVLNPNENYIEVEKPKIHVQSSSDSSDEPAEKRERKDKVSKETKKRRDFYEKYRNPQREKEMMQLYIRENGSPEEHAIYVWDHFIAQAAAENVFFVAHSYGGLAFVELMIQREADVKNKVTAVALTDSVHNVWHQEAGKTIREWMRENCCNWVSSSEPLDTSVESMLPDCPRVSAGTDRHELTSWKSFPSIFKFFTEASEAKTSSLKPAVTRRSHRIKHEEL [Q8WUF8],percentage of EdU-negative,[1]; [3],24.1 ± 1.1%
same,percentage of EdU-negative,[1]; protein concentration 0.225 µM,24 ± 0.46%
same,percentage of EdU-negative,[2]; [3],4.387 ± 0.021%
same,percentage of EdU-negative,[2]; protein concentration 0.225 µM,5.5592 ± 0.0051%
MIPGGLSEAKPATPEIQEIVDKVKPQLEEKTNETYGKLEAVQYKTQVVAGTNYYIKVRAGDNKYMHLKVFKSLPGQNEDLVLTGYQVDKNKDDELTGF,percentage of EdU-negative,[1]; [4],26.6 ± 0.69%
same,percentage of EdU-negative,[1]; [5],23.6 ± 2.5%
same,percentage of EdU-negative,[2]; [4],5.99 ± 0.58%
same,percentage of EdU-negative,[2]; [5],5.5 ± 0.67%
MALQRTHSLLLLLLLTLLGLGLVQPSYGQDGMYQRFLRQHVHPEETGGSDRYCNLMMQRRKMTLYHCKRFNTFIHEDIWNIRSICSTTNIQCKNGKMNCHEGVVKVTDCRDTGSSRAPNCRYRAIASTRRVVIACEGNPQVPVHFDG,percentage of EdU-negative,[1]; [6],25 ± 2.2%
same,percentage of EdU-negative,[1]; [7],25.6 ± 4.4%
same,percentage of EdU-negative,[2]; [6],4.98 ± 0.26%
same,percentage of EdU-negative,[2]; [7],4.74 ± 0.71%
MLRAGWLRGAAALALLLAARVVAAFEPITVGLAIGAASAITGYLSYNDIYCRFAECCREERPLNASALKLDLEEKLFGQHLATEVIFKALTGFRNNKNPKKPLTLSLHGWAGTGKNFVSQIVAENLHPKGLKSNFVHLFVSTLHFPHEQKIKLYQDQLQKWIRGNVSACANSVFIFDEMDKLHPGIIDAIKPFLDYYEQVDGVSYRKAIFIFLSNAGGDLITKTALDFWRAGRKREDIQLKDLEPVLSVGVFNNKHSGLWHSGLIDKNLIDYFIPFLPLEYRHVKMCVRAEMRARGSAIDEDIVTRVAEEMTFFPRDEKIYSDKGCKTVQSRLDFH,percentage of EdU-negative,[1]; protein concentration 0.005 µM,27.8 ± 1%
same,percentage of EdU-negative,[1]; protein concentration 0.05 µM,24.9 ± 1.3%
same,percentage of EdU-negative,[2]; protein concentration 0.005 µM,5.1 ± 0.71%
same,percentage of EdU-negative,[2]; protein concentration 0.05 µM,6.38 ± 0.16%
MVMLLLLLSALAGLFGAAEGQAFHLGKCPNPPVQENFDVNKYLGRWYEIEKIPTTFENGRCIQANYSLMENGKIKVLNQELRADGTVNQIEGEATPVNLTEPAKLEVKFSWFMPSAPYWILATDYENYALVYSCTCIIQLFHVDFAWILARNPNLPPETVDSLKNILTSNNIDVKKMTVTDQVNCPKLS,percentage of EdU-negative,[1]; [3],24.66 ± 0.099%
same,percentage of EdU-negative,[1]; protein concentration 0.225 µM,25.9 ± 3%
same,percentage of EdU-negative,[2]; [3],4.945 ± 0.022%
same,percentage of EdU-negative,[2]; protein concentration 0.225 µM,4.745 ± 0.02%
MLVDGPSERPALCFLLLAVAMSFFGSALSIDETRAHLLLKEKMMRLGGRLVLNTKEELANERLMTLKIAEMKEAMRTLIFPPSMHFFQAKHLIERSQVFNILRMMPKGAALHLHDIGIVTMDWLVRNVTYRPHCHICFTPRGIMQFRFAHPTPRPSEKCSKWILLEDYRKRVQNVTEFDDSLLRNFTLVTQHPEVIYTNQNVVWSKFETIFFTISGLIHYAPVFRDYVFRSMQEFYEDNVLYMEIRARLLPVYELSGEHHDEEWSVKTYQEVAQKFVETHPEFIGIKIIYSDHRSKDVAVIAESIRMAMGLRIKFPTVVAGFDLVGHEDTGHSLHDYKEALMIPAKDGVKLPYFFHAGETDWQGTSIDRNILDALMLNTTRIGHGFALSKHPAVRTYSWKKDIPIEVCPISNQVLKLVSDLRNHPVATLMATGHPMVISSDDPAMFGAKGLSYDFYEVFMGIGGMKADLRTLKQLAMNSIKYSTLLESEKNTFMEIWKKRWDKFIADVATK [Q9NZK5],percentage of EdU-negative,[1]; [8],24.5 ± 1.2%
same,percentage of EdU-negative,[1]; [9],28.4 ± 1.5%
same,percentage of EdU-negative,[2]; [8],4.31 ± 0.15%
same,percentage of EdU-negative,[2]; [9],7.86 ± 0.091%
MEMLQGLLLLLLLSMGGAWASREPLRPWCHPINAILAVEKEGCPVCITVNTTICAGYCPTMMRVLQAVLPPLPQVVCTYRDVRFESIRLPGCPRGVDPVVSFPVALSCRCGPCRRSTSDCGGPKDHPLTCDHPQLSGLLFL,percentage of EdU-negative,[1]; [4],25.1 ± 1.9%
same,percentage of EdU-negative,[1]; [5],25.5 ± 0.84%
same,percentage of EdU-negative,[2]; [4],5.24 ± 1%
same,percentage of EdU-negative,[2]; [5],5.19 ± 1%
MERMLPLLALGLLAAGFCPAVLCHPNSPLDEENLTQENQDRGTHVDLGLASANVDFAFSLYKQLVLKAPDKNVIFSPLSISTALAFLSLGAHNTTLTEILKGLKFNLTETSEAEIHQSFQHLLRTLNQSSDELQLSMGNAMFVKEQLSLLDRFTEDAKRLYGSEAFATDFQDSAAAKKLINDYVKNGTRGKITDLIKDLDSQTMMVLVNYIFFKAKWEMPFDPQDTHQSRFYLSKKKWVMVPMMSLHHLTIPYFRDEELSCTVVELKYTGNASALFILPDQDKMEEVEAMLLPETLKRWRDSLEFREIGELYLPKFSISRDYNLNDILLQLGIEEAFTSKADLSGITGARNLAVSQVVHKAVLDVFEEGTEASAATAVKITLLSALVETRTIVRFNRPFLMIIVPTDTQNIFFMSKVTNPKQA,percentage of EdU-negative,[1]; [4],24.5 ± 0.068%
same,percentage of EdU-negative,[1]; [5],28 ± 3.5%
same,percentage of EdU-negative,[2]; [4],4.76 ± 0.8%
same,percentage of EdU-negative,[2]; [5],9.51 ± 0.15%
